We go through one molecule from patent US20120301473A1 (NORTHWESTERN UNIVERSITY, published 2012).

Assay [1] concerns the target untagged recombinant full-length human α-synuclein (human, UniProt P37840 1-140). Briefly: dot blot. As to the method:
(§1) 45 ng/spot was applied to the nitrocellulose. Total Tau was determined using Tau12. […] Each point represents a minimum of three independent measurements. […] Scale bar is 200 nm. […] Monomeric and dimeric Tau were isolated from the same aggregation reaction. Also included is an electroeluted monomeric sample that was never exposed to AA (−AA). 12 ng/spot was applied to the nitrocellulose.
(§2) For dot blots, samples were spotted directly onto nitrocellulose membranes (44). Both Western and dot blot membranes were blocked with 5% nonfat dry milk in TBS, pH 7.4, and incubated in primary antibodies overnight at 4° C. For dot blots, 0.05% Triton X-100 was added to the TBS solution. The Tau12 (45), TauS (46), Tau7 (47), MOAB-2 (a mouse monoclonal antibody (IgG1) produced in the Binder laboratory what recognizes Aβ40 and −42), and TOC1 mouse monoclonal antibodies were used at 0.0067, 0.01, 0.04, 0.05, and 0.1 μg/ml, respectively. The mouse monoclonal anti-α-synuclein (Chemicon; MAB5320) and rabbit monoclonal anti-β-actin (Cell Signaling Technology; clone 13E5) antibodies were diluted to 1:2000 and 1:1000, respectively. The rabbit polyclonal antibodies R1 (48) and His-probe (Santa Cruz Biotechnology; clone H-15) were used at 0.0075 and 0.5 μg/ml, respectively. […]

Assay [2] addresses T1, recombinant human Aβ42 (rPeptide) (human, UniProt P05067 672-713).
T1 construct: domain: Aβ42; Tested in the monomeric (unaggregated), oligomeric and filamentous states; also called Aβ Olig; Aβ Fil
Briefly: dot blot. As to the method: as §1, §2

The target in assay [3] is T2, Tau MTBR construct consisting of residues 244-372 of hTau40 (human, UniProt P10636 561-689).
T2 construct: Expressed in E. coli from pET-17b; Assembled with AA before the dot blot; not shown: poly-His tag C-terminal to residue 372
T2 sequence (P10636 other isoform, or with tags, fused parts or gaps): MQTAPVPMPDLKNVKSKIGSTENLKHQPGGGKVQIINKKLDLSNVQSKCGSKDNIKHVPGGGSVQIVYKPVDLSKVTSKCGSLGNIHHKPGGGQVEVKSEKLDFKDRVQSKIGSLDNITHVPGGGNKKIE
Put plainly: dot blot of AA-assembled construct.

For assay [4], the target named is tau deletion construct Δ209-228 (hTau40), aggregated (human, UniProt P10636 1-758). Put plainly: aggregated deletion construct incubated with the antibody. On the procedure: (§3) Two overlapping tau deletion constructs (Δ209-228 and Δ221-238) were aggregated and incubated with the TOC1 antibody or with the Tau7 antibody. Both were positive for Tau7 which recognizes the last 11 amino acids of tau, but negative for TOC1.
Chain of tau deletion construct Δ209-228 (hTau40), aggregated (P10636 other isoform, or with tags, fused parts or gaps mutant): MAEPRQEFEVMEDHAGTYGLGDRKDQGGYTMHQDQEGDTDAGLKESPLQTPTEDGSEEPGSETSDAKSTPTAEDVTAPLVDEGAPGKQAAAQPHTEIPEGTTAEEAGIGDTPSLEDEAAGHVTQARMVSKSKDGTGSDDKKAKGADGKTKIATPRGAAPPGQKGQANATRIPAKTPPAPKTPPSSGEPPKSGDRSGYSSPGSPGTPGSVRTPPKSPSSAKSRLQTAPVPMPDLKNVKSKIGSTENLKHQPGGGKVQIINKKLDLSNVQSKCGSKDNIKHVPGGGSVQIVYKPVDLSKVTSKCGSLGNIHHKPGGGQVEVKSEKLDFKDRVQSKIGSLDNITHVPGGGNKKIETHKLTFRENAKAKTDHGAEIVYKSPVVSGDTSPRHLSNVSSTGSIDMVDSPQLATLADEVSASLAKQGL

The target of assay [5] is tau deletion construct Δ221-238 (hTau40), aggregated (human, UniProt P10636 1-758). Described as above. As to the method: as §3
Chain of tau deletion construct Δ221-238 (hTau40), aggregated (P10636 other isoform, or with tags, fused parts or gaps mutant): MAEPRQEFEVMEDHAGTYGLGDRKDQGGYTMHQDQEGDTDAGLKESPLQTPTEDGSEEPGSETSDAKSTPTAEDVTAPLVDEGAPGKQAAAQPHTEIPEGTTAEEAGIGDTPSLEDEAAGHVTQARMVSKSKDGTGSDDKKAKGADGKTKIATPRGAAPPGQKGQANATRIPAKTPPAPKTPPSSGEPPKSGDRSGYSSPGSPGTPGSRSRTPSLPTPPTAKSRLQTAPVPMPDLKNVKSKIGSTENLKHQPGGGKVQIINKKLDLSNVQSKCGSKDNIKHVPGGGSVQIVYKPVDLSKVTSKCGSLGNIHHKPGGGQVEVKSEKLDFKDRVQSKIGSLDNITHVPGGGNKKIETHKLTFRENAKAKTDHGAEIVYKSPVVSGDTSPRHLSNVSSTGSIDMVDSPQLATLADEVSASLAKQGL
Assay [6] has as its target T3, Tau oligomers (hTau40 aggregates <50 nm in length; sucrose gradient Fraction 3) (human, UniProt P10636 1-758).
T3 construct: Prefibrillar aggregates of recombinant poly-His tagged hTau40 made with arachidonic acid; The number of chains is not defined; also called oligomeric structures; oligomer fraction
Put plainly: immunogold EM, normalised to poly-His tag labeling of the same preparation.

T3 sequence (P10636 other isoform, or with tags, fused parts or gaps limits assumed): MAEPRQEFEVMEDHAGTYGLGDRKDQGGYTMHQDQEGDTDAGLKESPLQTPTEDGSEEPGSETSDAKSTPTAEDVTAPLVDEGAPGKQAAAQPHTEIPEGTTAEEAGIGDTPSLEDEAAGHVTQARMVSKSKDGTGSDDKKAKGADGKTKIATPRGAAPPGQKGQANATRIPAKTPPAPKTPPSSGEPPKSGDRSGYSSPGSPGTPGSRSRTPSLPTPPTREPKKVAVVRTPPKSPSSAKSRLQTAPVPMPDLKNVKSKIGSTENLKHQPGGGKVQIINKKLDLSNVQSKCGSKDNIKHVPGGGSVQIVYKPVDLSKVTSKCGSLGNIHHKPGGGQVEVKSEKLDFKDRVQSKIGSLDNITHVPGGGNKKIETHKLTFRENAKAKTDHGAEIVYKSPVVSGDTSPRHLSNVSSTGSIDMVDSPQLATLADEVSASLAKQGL
T1 sequence (P05067 672-713 limits assumed): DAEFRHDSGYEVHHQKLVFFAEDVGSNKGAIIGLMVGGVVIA

B1: Tau oligomeric complex-1 (TOC1) monoclonal antibody (antibody)
heavy: QVQLQQPGAELVMPGASVKLSCKASGYTFTSYWMHWVKQRPGQGLEWIGEIDPSDSYTNYNQKFKGKSTLTVDKSSSTAYMQLSSLTSEDSAVYYCARSGDGSSPWYFDVWGTGTTVTVSSESQSFPNVFPLVSCESPLSDKNLVAMGCLARDFLPSTISFTWNYQNNTEVIQGIRTFPTLRTGGKYLATSQVLLSPKSILEGSDEYLVCKIHYGGKNKDLHVPIPAVAEMNPNVNVFVPPRDGFSGPAPRKSKLICEATNFTPKPITVSWLKDGKLVESGFTTDPVTIENKGSTPQTYKVISTLTISEIDWLNLNVYTCRVDHRGLTFLKNVSSTCAASPSTDILTFTIPPSFADIFLSKSANLTCLVSNLATYETLNISWASQSGEPLETKIKIMESHPNGTFSAKGVASVCVEDWNNRKEFVCTVTHRDLPSPQKKFISKPNEVHKHPPAVYLLPPAREQLNLRESATVTCLVKGFSPADISVQWLQRGQLLPQEKYVTSAPMPEPGAPGFYFTHSILTVTEEEWNSGETYTCVVGHEALPHLVTERTVDKSTGKPTLYNVSLIMSDTGGTCY
light: DVLMTQTPLSLPVSLGDQASISCRSSQSIVHSNGNTYLEWYLQKPGQSPKLLIYKVSNRFSGVPDRFSGSGSGTDFTLKISRVEAEDLGVYYCFQGSHVPRTFGGGTKLEIKRADAAPTVSIFPPSSEQLTSGGASVVCFLNNFYPKDINVKWKIDGSERQNGVLNSWTDQDSKDSTYSMSSTLTLTKDEYERHNSYTCEATHKTSTSPIVKSFNRNEC
notes: Mouse monoclonal of the IgM isotype, purified from hybridoma culture; Raised in Tau null mice against electroeluted B4M cross-linked Tau dimers and boosted with cross-linked oligomers; The light chain protein print marks the leader with a dash; For the heavy chain only the DNA print does (57 nt)
With B1, the binding result in assay [1], in assay [2], in assay [3], in assay [4] and in assay [5] was “no binding” in each case. Besides, the “fold preference of immunogold labeling, oligomers over filaments (TOC1:His tag labeling)” value in assay [6] is over 7 fold.
